Tested on: Plux promoter
Experiment: LuxR/Plux circuit characterization by flow cytometry (AHL transfer functions)
Type: cell-based, E. coli
Details: no AHL, IPTG=10 mM, GFP, MG1655 Pro cells (FIG. 19C)
Method: Overnight cultures of E. coli strains were grown from glycerol freezer stocks at 37° C. 300 rpm in 3 mL of Luria-Bertani (LB)-Miller medium (Fisher #BP1426-2), with appropriate antibiotics: carbenicillin (50 μg/ml), kanamycin (30 μg/ml), chloramphenicol (25 μg/ml). The inducers used were arabinose, isopropyl-β-D-1-thiogalactopyranoside, and AHL 3OC6HSL (Sigma-Aldrich #K3007-10MG). Where appropriate, COPYCONTROL^24 from Epicentre (Madison, Wis.) was added to overnight cultures at 1× active concentration. Overnight cultures were diluted 1:100 into 3 mL fresh LB and antibiotics and were incubated at 37° C. 300 rpm for 20 minutes. […]
Cells were then diluted 4-fold into a new 96-well plate containing fresh 1×PBS and immediately assayed using a BD LSRFORTESSA-HTS. At least 50,000 events were recorded for all data, which was then gated by forward scatter and side scatter using CYFLOGIC v.1.2.1 software (CyFlo, Turku, Finland). The geometric means of the gated fluorescence distributions were calculated by Matlab. Fluorescence values are based on geometric means of flow cytometry populations from three experiments and the error bars represent standard errors of the mean.
For each experiment, fluorescence readings were taken on a BioTek Synergy H1 Microplate reader using BioTek Gen5 software to determine the minimum and maximum expression level for cultures in each 96-well plate. […]

B1: LuxR: quorum-sensing transcriptional activator induced by AHL, activates promoter Plux (protein, UniProt P12746 1-250, looked up)
Transcriptional activator …: MKNINADDTYRIINKIKACRSNNDINQCLSDMTKMVHCEYYLLAIIYPHSMVKSDISILDNYPKKWRQYYDDANLIKYDPIVDYSNSNHSPINWNIFENNAVNKKSPNVIKEAKTSGLITGFSFPIHTANNGFGMLSFAHSEKDNYIDSLFLHACMNIPLIVPSLVDNYRKINIANNKSNNDLTKREKECLAWACEGKSSWDISKILGCSERTVTFHLTNAQMKLNTTNRCQSISKAILTGAIDCPYFKN
  repression of the Plux promoter in the absence of AHL: no repression

— US20150087055A1, “ANALOG AND MIXED-SIGNAL COMPUTATION AND CIRCUITS IN LIVING CELLS” (MASSACHUSETTS INSTITUTE OF TECHNOLOGY, priority 2012, published 2015)
